{
  "source": "patent US20250076311A1",
  "about": "(Chugai, published 2025)",
  "binders": {"B1": {"name": "M103205H795-MY197/M103202L889-SK1 (antibody, human IgG1, kappa, name in EU numbering)", "heavy": "QVTLKESGPVLVKPTETLTLTCTVSGIDLSHDDISWVRQAPGKGLEWVGIISYAGSTYYASWAKGRLTISKDTSKNQVVLTMTNMDPVDTATYYCARGVPAYSHGGDLWGQGTLVTVSSASTKGPSVFPLAPSSKSTSGGTAALGCLVKDYFPEPVTVSWNSGALTSGVHTFPAVLQSSGLYSLSSVVTVPSSSLGTQTYICNVNHKPSNTKVDKKVEPKSCDKTHTCPPCPAPELLNGPSVFLFPPKPKDTLMISRTPEVTCVVVDVSDEDPEVKFNWYVDGVEVHNAKTKPREEQYNSTYRVVSVLTVLHQDWLNGKEYKCKVSNKALPKPIEKTISKAKGQPREPQVYTLPPSREEMTKNQVSLTCLVKGFYPSDIAVEWESNGQPENNYKTTPMVLDSDGSFFLYSKLTVDKSRWQQGNVFSCSVMHEALHNHYTQKSLSLSP", "light": "DIVMTQSPATLSLSPGERATLSCTSSQSVYHANWLSWFQQKPGQPPKLLIYWASTLAYGVPSRFSGSGSGTDFTLTISSLQPEDAATYYCAGGYGGGRYAFGQGTKVEIKRTVAAPSVFIFPPSDEQLKSGTASVVCLLNNFYPREAKVQWKVDNALQSGNSQESVTEQDSKDSTYSLSSTLTLSKADYEKHKVYACEVTHQGLSSPVTKSFNRGEC", "notes": "Fc variant of MS1032LO06-SG1; positions in EU numbering"}, "B2": {"name": "M103205H795-MY434/M103202L889-SK1 (antibody, human IgG1, kappa, name in EU numbering)", "heavy": "B1 heavy with L237W, M398P", "light": "B1 light", "notes": "as for B1"}, "B3": {"name": "M103205H795-MY202/M103202L889-SK1 (antibody, human IgG1, kappa, name in EU numbering)", "heavy": "B1 heavy with S241V, M398P", "light": "B1 light", "notes": "as for B1"}, "B4": {"name": "M103205H795-MY440/M103202L889-SK1 (antibody, human IgG1, kappa, name in EU numbering)", "heavy": "B1 heavy with L237W, Q297L, M398P", "light": "B1 light", "notes": "as for B1"}, "B5": {"name": "M103205H795-MY049/M103202L889-SK1 (antibody, human IgG1, kappa, name in EU numbering)", "heavy": "not shown", "light": "B1 light", "notes": "as for B1"}, "B6": {"name": "M103205H795-MY204/M103202L889-SK1 (antibody, human IgG1, kappa, name in EU numbering)", "heavy": "B1 heavy with S241V, D270E, Q297L, M398P", "light": "B1 light", "notes": "substitutions in EU numbering, introduced into M103205H795-SG1"}, "B7": {"name": "M103205H795-MY288/M103202L889-SK1 (antibody, human IgG1, kappa, name in EU numbering)", "heavy": "not shown", "light": "B1 light", "notes": "as for B6"}, "B8": {"name": "M103205H795-MY350/M103202L889-SK1 (antibody, human IgG1, kappa, name in EU numbering)", "heavy": "B1 heavy with L237W, D270E", "light": "B1 light", "notes": "as for B6"}, "B9": {"name": "GpH7-B3 N325F / GpL16-k0 (antibody, human IgG1, kappa)", "heavy": "not shown", "light": "DIVMTQSPLSLPVTPGEPASISCQASESLVHSNRNTYLHWYLQKPGQSPQLLIYKVSNRFSGVPDRFSGSGSGTDFTLKISRVEAEDVGVYYCSQNTHVPPTFGQGTKVEIERTVAAPSVFIFPPSDEQLKSGTASVVCLLNNFYPREAKVQWKVDNALQSGNSQESVTEQDSKDSTYSLSSTLTLSKADYEKHKVYACEVTHQGLSSPVTKSFNRGEC", "notes": "also called B3 variant N325F"}, "B10": {"name": "GpH7-B3 S239P / GpL16-k0 (antibody, human IgG1, kappa)", "heavy": "not shown", "light": "B9 light", "notes": "also called B3 variant S239P"}, "B11": {"name": "GpH7-B3 P238Y / GpL16-k0 (antibody, human IgG1, kappa)", "heavy": "not shown", "light": "B9 light", "notes": "also called B3 variant P238Y"}, "B12": {"name": "GpH7-B3 V266F / GpL16-k0 (antibody, human IgG1, kappa)", "heavy": "not shown", "light": "B9 light", "notes": "also called B3 variant V266F"}},
  "note": "Changes are numbered by the printed parent chain. In names and notes the source's numbering stands.",
  "data": [
    {"biological_target": "T1, human FcγRIIaH extracellular domain with C-terminal His-tag (human, UniProt P12318 34-217)", "T1 construct": "also called human FcgRIIaH; FcγRIIa type H; not shown: His-tag added to the C-terminus", "T1 sequence": "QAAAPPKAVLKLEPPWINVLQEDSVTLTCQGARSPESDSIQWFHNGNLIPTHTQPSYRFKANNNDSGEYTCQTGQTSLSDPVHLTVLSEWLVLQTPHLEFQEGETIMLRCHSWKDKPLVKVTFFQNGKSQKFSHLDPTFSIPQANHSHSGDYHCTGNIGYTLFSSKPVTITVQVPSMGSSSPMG", "experiment": "SPR (BIACORE), antibody captured, FcgR analyte", "units": {"Kd": "nM"}, "values": [
      {"binder": "B1", "Kd": 160},
      {"binder": "B2", "Kd": 1600},
      {"binder": "B3", "Kd": 1200}
    ]},
    {"biological_target": "T2, cynomolgus monkey FcγRIIa3 extracellular domain with C-terminal His-tag (cynomolgus monkey)", "T2 construct": "also called cyno FcgRIIa3; cynoFcγRIIa3; not shown: His-tag added to the C-terminus", "T2 chain": "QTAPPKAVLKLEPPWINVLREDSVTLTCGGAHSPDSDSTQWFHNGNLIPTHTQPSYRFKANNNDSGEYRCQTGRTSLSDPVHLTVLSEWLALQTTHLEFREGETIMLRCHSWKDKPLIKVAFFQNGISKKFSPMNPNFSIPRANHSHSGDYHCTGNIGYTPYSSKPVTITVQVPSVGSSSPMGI", "experiment": "SPR (BIACORE), antibody captured, FcgR analyte", "units": {"Kd": "nM"}, "values": [
      {"binder": "B1", "Kd": 1400},
      {"binder": "B2", "Kd": 6400},
      {"binder": "B4", "Kd": 4800},
      {"binder": "B3", "Kd": 2200}
    ]},
    {"biological_target": "T3, human FcγRIIaR extracellular domain with C-terminal His-tag (human, UniProt P12318 34-217)", "T3 construct": "also called human FcgRIIaR; FcγRIIa type R; not shown: His-tag added to the C-terminus", "T3 chain": "T1 sequence with H134R", "experiment": "SPR (BIACORE), antibody captured, FcgR analyte", "units": {"Kd": "nM"}, "values": [
      {"binder": "B5", "Kd": 7800},
      {"binder": "B2", "Kd": 19},
      {"binder": "B4", "Kd": 1100}
    ]},
    {"biological_target": "T4, cynomolgus monkey FcγRIIIaS extracellular domain with C-terminal His-tag (cynomolgus monkey, UniProt A3RFZ7 21-206 (rhesus entry))", "T4 construct": "also called cyno FcgRIIIaS; cynoFcγRIIIaS; not shown: His-tag added to the C-terminus", "experiment": "SPR (BIACORE), antibody captured, FcgR analyte", "units": {"Kd": "nM"}, "values": [
      {"binder": "B5", "Kd": 4500},
      {"binder": "B1", "Kd": 2100},
      {"binder": "B2", "Kd": 11000},
      {"binder": "B4", "Kd": 9300},
      {"binder": "B3", "Kd": 4000}
    ]},
    {"biological_target": "T5, cynomolgus monkey FcγRIIa3 extracellular domain with C-terminal His-tag (cynomolgus monkey)", "T5 construct": "also called cyno FcgRIIa3; cynoFcγRIIa3; not shown: His-tag added to C-terminus", "T5 chain": "T2 chain", "experiment": "SPR Biacore, antibody captured, FcgR analyte", "units": {"KD fold (SG1 = 1)": "fold"}, "values": [
      {"binder": "B6", "KD fold (SG1 = 1)": 3.3},
      {"binder": "B7", "KD fold (SG1 = 1)": 1.5}
    ]},
    {"biological_target": "T6, cynomolgus monkey FcγRIIIaS extracellular domain with C-terminal His-tag (cynomolgus monkey, UniProt A3RFZ7 21-206 (rhesus entry))", "T6 construct": "also called cyno FcgRIIIaS; cynoFcγRIIIaS; not shown: His-tag added to C-terminus", "experiment": "SPR Biacore, antibody captured, FcgR analyte", "units": {"KD fold (SG1 = 1)": "fold"}, "values": [
      {"binder": "B6", "KD fold (SG1 = 1)": 0.1},
      {"binder": "B8", "KD fold (SG1 = 1)": 0.05},
      {"binder": "B7", "KD fold (SG1 = 1)": 0.03}
    ]},
    {"biological_target": "T7, cynomolgus monkey FcγRIIb extracellular domain with C-terminal His-tag (cynomolgus monkey)", "T7 construct": "also called cyno FcgRIIb; cynoFcγRIIb; not shown: His-tag added to C-terminus", "T7 chain": "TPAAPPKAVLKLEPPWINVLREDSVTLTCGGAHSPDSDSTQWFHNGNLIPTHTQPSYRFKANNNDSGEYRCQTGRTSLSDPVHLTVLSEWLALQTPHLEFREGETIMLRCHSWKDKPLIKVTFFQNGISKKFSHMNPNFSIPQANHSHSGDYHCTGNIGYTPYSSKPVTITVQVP", "experiment": "SPR Biacore, antibody captured, FcgR analyte", "units": {"KD fold (SG1 = 1)": "fold"}, "values": [
      {"binder": "B6", "KD fold (SG1 = 1)": 2.2},
      {"binder": "B8", "KD fold (SG1 = 1)": 3.2},
      {"binder": "B7", "KD fold (SG1 = 1)": 1.5}
    ]},
    {"biological_target": "T8, human FcγRIIb extracellular domain with C-terminal His-tag (human, UniProt P31994 43-217)", "T8 construct": "also called human FcgRIIb; not shown: His-tag added to C-terminus", "T8 sequence": "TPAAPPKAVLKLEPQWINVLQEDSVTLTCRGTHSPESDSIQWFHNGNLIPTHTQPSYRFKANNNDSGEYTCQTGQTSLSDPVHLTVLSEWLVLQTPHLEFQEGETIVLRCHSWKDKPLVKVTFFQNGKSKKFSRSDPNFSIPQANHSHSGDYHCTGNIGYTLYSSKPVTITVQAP", "experiment": "SPR Biacore, antibody captured, FcgR analyte", "units": {"KD fold (SG1 = 1)": "fold"}, "values": [
      {"binder": "B7", "KD fold (SG1 = 1)": 0.5}
    ]},
    {"biological_target": "T4, cynomolgus monkey FcγRIIIaS …", "experiment": "SPR (BIACORE); KD of SG1 / KD of variant", "procedure": "The kinetic analysis of interactions between these antibodies and FcγR was carried out using BIACORE® T200 or BIACORE® 4000 (GE Healthcare). HBS-EP+ (GE Healthcare) was used as the running buffer, and the measurement temperature was set to 25° C. […] After the measurement, the antibody captured on the chip was washed off by allowing reaction with 10 mM glycine-HCl, pH1.5 and 25 mM NaOH so that the chip was regenerated and used repeatedly. The sensorgrams obtained as measurement results were analyzed by the 1:1 Langmuir binding model using the BIACORE® Evaluation Software to calculate the binding rate constant ka (L/mol/s) and dissociation rate constant kd (1/s), and the dissociation constant KD (mol/L) was calculated from these values. […] Regarding such interactions, KD values were calculated using the following 1:1 binding model described in BIACORE® T100 Software Handbook BR1006-48 Edition AE.", "units": {"KD fold (SG1 = 1)": "fold"}, "T4 sequence (A3RFZ7 21-206)": "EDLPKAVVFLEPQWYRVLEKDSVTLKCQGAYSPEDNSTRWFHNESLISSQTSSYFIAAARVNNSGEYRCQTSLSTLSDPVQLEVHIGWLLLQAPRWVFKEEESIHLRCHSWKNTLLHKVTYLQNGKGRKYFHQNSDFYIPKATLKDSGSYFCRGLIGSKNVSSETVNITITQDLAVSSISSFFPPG", "values": [
      {"binder": "B5", "KD fold (SG1 = 1)": 0.08},
      {"binder": "B1", "KD fold (SG1 = 1)": 0.17}
    ]},
    {"biological_target": "T9, human FcγRIIaH extracellular domain, His-tagged (human, UniProt P12318 34-217)", "T9 construct": "also called human FcgRIIaH; FcγRIIa type H", "T9 sequence": "T1 sequence", "experiment": "SPR (Biacore), 25C, FcgR bound per antibody captured", "values": [
      {"binder": "B9", "Binding to human FcgRs (parent B3 = 100)": 65},
      {"binder": "B10", "Binding to human FcgRs (parent B3 = 100)": 49},
      {"binder": "B11", "Binding to human FcgRs (parent B3 = 100)": 93}
    ]},
    {"biological_target": "T10, human FcγRIIIaV extracellular domain, His-tagged (human, UniProt P08637 17-208)", "T10 construct": "also called human FcgRIIIaV", "T10 sequence (P08637 17-208 F176V)": "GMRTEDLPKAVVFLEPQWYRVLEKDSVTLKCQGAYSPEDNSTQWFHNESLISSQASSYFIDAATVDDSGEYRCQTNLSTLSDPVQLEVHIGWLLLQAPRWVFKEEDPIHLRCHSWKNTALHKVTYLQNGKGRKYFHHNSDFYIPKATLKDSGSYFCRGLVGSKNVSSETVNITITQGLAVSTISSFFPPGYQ", "experiment": "SPR (Biacore), 25C, FcgR bound per antibody captured", "values": [
      {"binder": "B9", "Binding to human FcgRs (parent B3 = 100)": -1},
      {"binder": "B12", "Binding to human FcgRs (parent B3 = 100)": 2},
      {"binder": "B10", "Binding to human FcgRs (parent B3 = 100)": -1},
      {"binder": "B11", "Binding to human FcgRs (parent B3 = 100)": 3}
    ]},
    {"biological_target": "T11, human FcγRIIb extracellular domain, His-tagged (human, UniProt P31994 43-217)", "T11 construct": "also called human FcgRIIb", "T11 sequence": "T8 sequence", "experiment": "SPR (Biacore), 25C, FcgR bound per antibody captured", "values": [
      {"binder": "B9", "Binding to human FcgRs (parent B3 = 100)": 72},
      {"binder": "B12", "Binding to human FcgRs (parent B3 = 100)": 88},
      {"binder": "B10", "Binding to human FcgRs (parent B3 = 100)": 61},
      {"binder": "B11", "Binding to human FcgRs (parent B3 = 100)": 114}
    ]}
  ]
}
